Data published in EP4681731A1 (Bio-Thera Solutions, Ltd., dated 2026).

Assays:
[1] = molecular target: T1, human OX40 on PG-Jurkat-hOX40-NF-kB cells (human, UniProt P43489 29-277); test: cell-based or functional assay
T1 sequence (looked up): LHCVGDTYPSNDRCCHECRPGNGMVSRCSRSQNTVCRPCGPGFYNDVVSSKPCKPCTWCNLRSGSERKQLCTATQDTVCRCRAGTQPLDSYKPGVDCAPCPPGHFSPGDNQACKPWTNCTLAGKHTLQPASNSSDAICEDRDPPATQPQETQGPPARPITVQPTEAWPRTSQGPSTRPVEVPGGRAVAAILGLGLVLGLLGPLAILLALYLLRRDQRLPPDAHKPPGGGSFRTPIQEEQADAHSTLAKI

[2] = molecular target: T1, human OX40 on PG-Jurkat-hOX40-NF-kB …; test: flow cytometry competition against OX40L-mFc on PG-Jurkat-OX40-NF-kB cells; reference antibody KHK4083
[3] = molecular target: T1, human OX40 on PG-Jurkat-hOX40-NF-kB …; test: flow cytometry competition: antibody titrated against OX40L-mFc (1.5 ug/mL) on PG-Jurkat-OX40-NF-kB cells, anti-mFc APC detection

IC50 of blocking OX40L-mFc-induced NF-kB luciferase reporter signal (RLU) in PG-Jurkat-OX40-NF-kB cells [1]: 0.095 nM | fold lower IC50 than antibody KHK4083 in the NF-kB luciferase reporter assay [1]: 4.8 fold | fold lower IC50 than antibody KHK4083 [2]: 2.8 fold | IC50 [3]: 0.85 nM
B1: antibody M-KF (antibody, human IgG1, kappa, V domains shown)
VH: QVQLVESGGGVVQPGESLRLSCAASGFTFSSYGMHWVRQAPGKGLEWVAVIWEDGSNQYYADSVKGRFTISRDNSKNTLYLQMNSLRAEDTAVYYCAKDNQDTSPDVGIDYWGQGTLVTVSS
VL: DIQMTQSPSSLSASVGDRVTITCRASQNISPFLNWYQQKPGKAPKLLIYAAVGLQSGVPSRFSGSGSGTDFTLTISSLQPEDFATYYCQQYTDYPLTFGGGTKVEIKR
notes: Expressed in CHO-BAT-KF cells (alpha-(1,6)-fucosyltransferase knocked out); also called anti-OX40 antibody
